# Experiment: HPLC analysis of SST before and after thiolation (elution time related to hydrophilicity)
# Format: physicochemical
# Details: chromatographic, C18 reversed-phase analytical column, linear gradient 26% to 39% acetonitrile in water with 0.1% TFA, 1.0 mL/min, detection at 274 nm
# Procedure: Then, thiolated-SST labeled with (1.5 eq) eosin-5-maleimide. Eosin-5-maleimide solution was mixed with thiolated-SST, the reactants were stirred at 600rpm for 30 min. The products were purified by running in Sephadex G-25 mini-column, and identified by thin layer chromatography. HPLC analysis was performed for SST using a linear gradient from 26% to 39% acetonitrile in water, with 0.1% TFA as mobile phase at a flow rate of 1.0 mL/min using a C18-reversed phase analytical column.
# The thiolation of SST was investigated using HPLC. […] The single peak eluted at about 19 min corresponded to SST. Thiolated-SST eluted at 18.6 min. The signal consists of multiple neighbouring peaks, these neighbouring peaks appeared between 20.5 and 23 min (Figure 7) and could be related to SST in isomerized form. Neither thiolated-SST nor SST degradation products were detected. Thiolated-SST eluted earlier than SST which is related to the increase in hydrophilicity.
# Figure 7 HPLC chromatographs of SST reacted with Traut´s reagent. Signals were detected at 274 nm. Single peak eluted at about 19 min corresponded to SST. Thiolated-SST eluted at 18.6 min.
row,Substance,HPLC elution time (earlier elution related to increase in hydrophilicity)
1,Thiolated-SST: SST thiolated using Traut's reagent,18.6 min
2,Somatostatin acetate [SST],about 19 min

# Source: article PMC5985169, “Somatostatin Decorated Quantum Dots for Targeting of Somatostatin Receptors” (Iranian Journal of Pharmaceutical Research : IJPR, 2018)
